Literature values as cited in article PMC13242166.

Target: TRH1 receptor (Homo sapiens) (UniProt P34981)
Experiment: radioligand binding

Sequence of UniProt P34981 (P34981 whole entry): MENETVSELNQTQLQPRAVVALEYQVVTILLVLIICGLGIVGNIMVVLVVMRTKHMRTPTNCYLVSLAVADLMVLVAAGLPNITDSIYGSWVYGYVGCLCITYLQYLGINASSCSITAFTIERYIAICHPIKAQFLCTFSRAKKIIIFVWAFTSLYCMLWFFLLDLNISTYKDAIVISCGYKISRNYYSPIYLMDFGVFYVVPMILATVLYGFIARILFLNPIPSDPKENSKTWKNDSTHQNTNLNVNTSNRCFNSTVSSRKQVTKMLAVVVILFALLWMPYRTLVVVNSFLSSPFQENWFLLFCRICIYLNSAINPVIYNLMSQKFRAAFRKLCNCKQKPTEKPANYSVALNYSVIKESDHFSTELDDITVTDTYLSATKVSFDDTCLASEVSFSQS

**Q.** For TRH (from UniProt P20396), which Kd is on record?
**A.** 0.013 µM
